B1: Arabidopsis thaliana cryptochrome 2 (CRY2, UniProt Q96524), residues 1-535 fused after the Gal4 DNA-binding domain (Gal4BD-CRY2(535)); mutagenized window 321-412, Q96524 (parent)
chain: MKMDKKTIVWFRRDLRIEDNPALAAAAHEGSVFPVFIWCPEEEGQFYPGRASRWWMKQSLAHLSQSLKALGSDLTLIKTHNTISAILDCIRVTGATKVVFNHLYDPVSLVRDHTVKEKLVERGISVQSYNGDLLYEPWEIYCEKGKPFTSFNSYWKKCLDMSIESVMLPPPWRLMPITAAAEAIWACSIEELGLENEAEKPSNALLTRAWSPGWSNADKLLNEFIEKQLIDYAKNSKKVVGNSTSLLSPYLHFGEISVRHVFQCARMKQIIWARDKNSEGEESADLFLRGIGLREYSRYICFNFPFTHEQSLLSHLRFFPWDADVDKFKAWRQGRTGYPLVDAGMRELWATGWMHNRIRVIVSSFAVKFLLLPWKWGMKYFWDTLLDADLECDILGWQYISGSIPDGHELDRLDNPALQGAKYDPEGEYIRQWLPELARLPTEWIHHPWDAPLTVLKASGVELGTNYAKPIVDIDTARELLAKAISRTREAQIMIGAAPDEIVADSFEALGANTIKEPGLCPSVSSNDQQVPSAV

Variants of B1 are the subject of one assay. As to the kind of experiment: yeast two-hybrid growth selection (MaV203; Gal4BD-CRY2(1-535) library x Gal4AD-CIB1; URA3 reporter on SC -Trp/-Leu/-Ura) in the dark, deep sequencing before and after selection, Enrich2 scoring; three independent screens (one at 48 h, two …). To be noted: with CIB1 (CRYPTOCHROME-INTERACTING BASIC-HELIX-LOOP-HELIX 1), dark (no blue light), screens 1, 3 and 4, Svar > 0 = enriched under dark selection for CRY2-CIB1 two-hybrid growth (URA3 reporter), < 0 = depleted, relative to wild type (whose scores are 0). 'The Enrich2 software calculates, parent: 0, not an affinity, scale: Enrich2 score, numbering: uniprot, sequence starts at 1.
R332S: the enrichment is 0.5. The same measure, in the same setting: with R332I the figure was -0.681.

Turning to R332G, the enrichment is -0.0201. The same measure, in the same setting: with R332K the figure was -1.23; with W331C, -0.871; with W331L, 1. On the same count and under the same terms, with W331G the figure was -1.69. Turning to W331R, the enrichment is -1.72. On the same count and under the same terms, to I358L belongs 0.903; to I358T, -0.414. The same measure, in the same setting: with I358K the figure was -1.34; with I358M, 0.739; with I358V, 0.345.

With I358R, the enrichment is -0.0561.

With H355P, the enrichment was 0.249.

For the variant H355R, the enrichment is 0.547. For H355D, the enrichment is -1.37. The same measure, in the same setting: to H355Y belongs -0.714; to H355L, -0.0587. Regarding H355Q, the enrichment is -0.322. Still for that read-out and setting: to F369I belongs -0.158; to F369S, -0.00513.

For F369T, the enrichment is -2.07. On the same count and under the same terms, to F369L belongs 0.468.

For F369C, the enrichment was 0.578. Consider F369V, for which the enrichment is 1.03. Still for that read-out and setting: to G352A belongs -1.47. On the same count and under the same terms, with G352E the figure was -0.327.

Consider G352R, for which the enrichment was -0.844. On the same count and under the same terms, to M354K belongs -1.63. Same read-out and setting: to M354I belongs 0.689; to M354V, 0.0609; to M354R, -1.57.

Take M354T: the enrichment is 0.533. On the same count and under the same terms, to M354L belongs 0.399; to A366V, 2.13; to A366P, -1.03. Same read-out and setting: to A366D belongs -0.566. Still for that read-out and setting: with A366T the figure was 1; with L372R, 0.499; with L372H, -1.45.

For L372P, the enrichment was -1.5.

For the variant L372I, the enrichment is -0.44.

For the variant L372F, the enrichment was 0.987. For the variant D342A, the enrichment is -0.75. D342N: the enrichment is -0.898. For D342E, the enrichment was -1.69. The same measure, in the same setting: to D342Y belongs -1.02. Still for that read-out and setting: with D342V the figure was -1.71. Consider D342G, for which the enrichment is -1.84. Still for that read-out and setting: with A323D the figure was 0.677; with A323S, 0.117. Regarding A323V, the enrichment is -0.61.

A323T: the enrichment is -0.65. On the same count and under the same terms, to T351N belongs -0.315; to T351P, -0.191; to T351A, -1.04. For the variant T351S, the enrichment was -0.0139.

As for L371R, the enrichment is 1.98. Same read-out and setting: with L371I the figure was -0.7; with L371P, -1.4.

Regarding L371V, the enrichment is 1.25. Same read-out and setting: to L371H belongs 2.16; to L371S, 1.98; to L371F, 3.11. The same measure, in the same setting: to E347K belongs -1.6. Still for that read-out and setting: to E347A belongs 0.457. Regarding E347G, the enrichment is -1.39.

As to E347V, the enrichment is -1.41. The same measure, in the same setting: with E347D the figure was -0.854; with R359G, -0.386; with R359I, -0.665.

Consider R359S, for which the enrichment is -0.603. On the same count and under the same terms, with I361S the figure was -0.712; with I361T, -0.646; with I361V, -0.287. Still for that read-out and setting: to I361L belongs 0.823. Same read-out and setting: to I361N belongs -1.11. Turning to I361F, the enrichment is -0.00476.

As for I361M, the enrichment was -0.375. Same read-out and setting: with K375E the figure was 2.2; with K375R, -0.0254; with K375S, 0.796. On the same count and under the same terms, with K375V the figure was 1.44; with K375T, -0.845. As to K375I, the enrichment was 0.307. Same read-out and setting: to K375Q belongs 0.228; to N356T, 0.0153; to N356H, 0.0591. The same measure, in the same setting: with N356S the figure was 0.0584. Still for that read-out and setting: with N356Y the figure was 0.824.

In the case of N356I, the enrichment is -0.473.

On to N356K, for which the enrichment was -0.299.

Consider N356D, for which the enrichment is 2.44.

Turning to M378K, the enrichment is 2.66.

Consider M378L, for which the enrichment is -0.703.

With M378I, the enrichment is -0.703. For M378A, the enrichment is 0.99.

On to R357I, for which the enrichment is -0.511. Still for that read-out and setting: to R357S belongs 2.1; to R357G, 2.16. The same measure, in the same setting: to R357K belongs 0.845; to A330V, -1.26. On the same count and under the same terms, to A330G belongs -2.23. With A330P, the enrichment was -1.93. On the same count and under the same terms, with A330D the figure was -0.577; with A330T, -0.56. Still for that read-out and setting: with A330S the figure was -0.0962. Still for that read-out and setting: with G334S the figure was -0.925; with G334V, -0.578; with G334A, -1.45. As for G334C, the enrichment was 0.0705. On to D326Y, for which the enrichment is -0.976. Same read-out and setting: with D326G the figure was 0.327; with D326N, -0.256.

D326E: the enrichment is -1.28. As for D326V, the enrichment is -0.872. On to D326A, for which the enrichment was -0.893. On the same count and under the same terms, with V360A the figure was 0.0306; with V360G, -1.05. Still for that read-out and setting: with V360L the figure was 0.412; with V360E, 0.367. The same measure, in the same setting: to F328I belongs -1.51. Regarding F328S, the enrichment was -1.95.

Take F328Y: the enrichment was -0.296. Still for that read-out and setting: with F328V the figure was -2.43; with F328P, 0.453; with F328C, -1.53.

For F328L, the enrichment was -0.872. With G344V, the enrichment is -1.21.

Consider G344E, for which the enrichment is -0.724.

In the case of G344R, the enrichment was -0.722. Same read-out and setting: to P339T belongs -0.66. For P339Q, the enrichment is -1.15. With P339L, the enrichment was -1.02.

Variants of B1 are the subject of another assay. As to the kind of experiment: yeast two-hybrid, quantitative GalUAS-lacZ (beta-galactosidase) reporter assay. To be noted: with itself; dark; strain AH109; parent: 25; read off a plot. Background: Reporter assays use an easily measured gene product as a stand-in for the process of interest.
Take MKMDKKTIVWFRRDLRIEDNPALAAAAHEGSVFPVFIWCPEEEGQFYPGRASRWWMKQSLAHLSQSLKALGSDLTLIKTHNTISAILDCIRVTGATKVVFNHLYDPVSLVRDHTVKEKLVERGISVQSYNGDLLYEPWEIYCEKGKPFTSFNSYWKKCLDMSIESVMLPPPWRLMPITAAAEAIWACSIEELGLENEAEKPSNALLTRAWSPGWSNADKLLNEFIEKQLIDYAKNSKKVVGNSTSLLSPYLHFGEISVRHVFQCARMKQIIWARDKNSEGEESADLFLRGIGLREYSRYICFNFPFTHEQSLLSHLRFFPWDADVDKFKAWRQGRTGYPLVDAGMRELWATGWMHNRIRVIVSSFAVKFLLLPAKWGMKYFWDTLLDADLECDILGWQYISGSIPDGHELDRLDNPALQGAKYDPEGEYIRQWLPELARLPTEWIHHPWDAPLTVLKASGVELGTNYAKPIVDIDTARELLAKAISRTREAQIMIGAAPDEIVADSFEALGANTIKEPGLCPSVSSNDQQVPSAV [chain 1 W374A]: the response came out at 170 Miller units.

The same assay, now with this note: with itself; light; strain AH109; parent: 220; read off a plot.
Regarding MKMDKKTIVWFRRDLRIEDNPALAAAAHEGSVFPVFIWCPEEEGQFYPGRASRWWMKQSLAHLSQSLKALGSDLTLIKTHNTISAILDCIRVTGATKVVFNHLYDPVSLVRDHTVKEKLVERGISVQSYNGDLLYEPWEIYCEKGKPFTSFNSYWKKCLDMSIESVMLPPPWRLMPITAAAEAIWACSIEELGLENEAEKPSNALLTRAWSPGWSNADKLLNEFIEKQLIDYAKNSKKVVGNSTSLLSPYLHFGEISVRHVFQCARMKQIIWARDKNSEGEESADLFLRGIGLREYSRYICFNFPFTHEQSLLSHLRFFPWDADVDKFKAWRQGRTGYPLVDAGMRELWATGWMHNRIRVIVSSFAVKFLLLPAKWGMKYFWDTLLDADLECDILGWQYISGSIPDGHELDRLDNPALQGAKYDPEGEYIRQWLPELARLPTEWIHHPWDAPLTVLKASGVELGTNYAKPIVDIDTARELLAKAISRTREAQIMIGAAPDEIVADSFEALGANTIKEPGLCPSVSSNDQQVPSAV [chain 1 W374A], the response turned out to be 180 Miller units.
